The record followed here is the RNAGym collection of RNA variant scans (doi:10.7554/elife.80360).

B1: CPEB3 Ribozyme (parent)
chain: GGGGGCCACAGCAGAAGCGUUCACGUCGCGGCCCCUGUCAGAUUCUGGUGAAUCUGCGAAUUCUGCUGU

The variants in this series derive from B1. Put plainly: self-cleavage, relative activity (ratio to wild type); higher = more cleavage; co-transcriptional.
With C32U U64A, the self-cleavage stood at 0.992. C32U U64C: the self-cleavage came out at 0.899. The value for C33A U67C was 0.928. As for C33A G47U, the self-cleavage was found to be 0.961. The value for C33U G68U was 1.02. The value for C33U G68A was 1.01. The value for C33U U38A was 0.913; that for C33U C57G was 0.247; that for C33U C57A was 0.323.

Turning to C34A C45G, the self-cleavage came to 0.427. The value for C34A C45A was 0.528. The value for C33U G65A was 0.919. The value for C33U G65C was 0.669; that for C33A A60C was 0.346. For the variant C33A U69A, the self-cleavage was 1. The result for C34A A60U reads 0.292. Turning to C34A A60G, the self-cleavage amounted to 0.44. The value for C34A A60C was 0.313. The result for C33G G56A reads 0.496. The value for C33G G56U was 0.458. Consider C34A U36C, for which the self-cleavage is 0.568. The value for C34A U36G was 0.316; that for C33A was 0.916; that for C33G was 0.668. The result for C33U reads 0.994. The result for C33G U49G reads 0.692; that for C33A C34U, 0.489; that for C34A U38A, 0.846.

As to C34A U38C, the self-cleavage was determined as 0.492. The value for C34A U38G was 0.232; that for C33G U69C was 0.972.

As to C34A C39A, the self-cleavage was found to be 0.346. The value for C34A U49G was 0.865. For the variant C33A G58A, the self-cleavage worked out at 0.811.

As to C34A U69C, the self-cleavage turned out to be 0.992.

Turning to C33U G41A, the self-cleavage came out at 0.827. The value for C33A C63A was 0.611; that for C33A C63U was 0.851; that for C33U A60C was 0.319.

For C33U U44C, the self-cleavage is 0.938.

For the variant C33U U44A, the self-cleavage came to 1.01. The result for C34A A40C reads 0.291; that for C33U U67C, 0.971.

For the variant C34A G65C, the self-cleavage was 0.485. The value for C33G A40G was 0.648; that for C33U A52U was 0.922. The value for C33U A52G was 0.993; that for C33G A52U was 0.444.

For C33A G41C, the self-cleavage was determined as 0.343. As for C32U U69A, the self-cleavage was 1.03. The result for C33A C45G reads 0.665; that for C33A C45A, 0.523; that for C33G G68C, 0.877. The result for C33G G68U reads 0.861; that for C33A U38A, 0.804; that for C33A U38C, 0.72.

Consider C33G U38G, for which the self-cleavage is 0.324.

For C33G U38C, the self-cleavage was 0.45. The value for C33G U62C was 0.358. The result for C34A G50A reads 0.822; that for C34A G50C, 0.773; that for C33G G37C, 0.16. The result for C33G C54A reads 0.369. For C33U C54A, the self-cleavage came out at 0.868.

For the variant C33U C54G, the self-cleavage came out at 0.828. The result for C33A U43A reads 0.311; that for C34A G37C, 0.262; that for C33G A59U, 0.362. The value for C33G A59G was 0.516. The result for C34A U46C reads 0.829; that for C34A U46A, 0.848. On to C33U C39U, for which the self-cleavage stood at 0.932. The result for C33U C39G reads 0.918. The value for C33G U67G was 0.93. With C33G U67A, the self-cleavage worked out at 0.857. The value for C33U U36A was 0.218; that for C33A U61G was 0.5. The value for C34A A52U was 0.664; that for C34G A52G was 0.771. Regarding C34G A52C, the self-cleavage came out at 0.618. The value for C34A C35A was 0.275; that for C33A U62C was 0.584; that for C33A U62G was 0.559.

For the variant C33A G48A, the self-cleavage was 0.95.

As to C34A U67G, the self-cleavage worked out at 0.903. The value for C34A U67C was 0.938; that for C34A U67A was 0.883; that for C33G U55C was 0.282.

On to C34A U44A, for which the self-cleavage stood at 0.511. For C33G A51C, the self-cleavage came to 0.335. Take C33G U43A: the self-cleavage was 0.299. The value for C33G U43C was 0.391; that for C32U U62C was 0.955; that for C33G C66G was 0.625.

Take C33A A59G: the self-cleavage turned out to be 0.738. The result for C33A A59U reads 0.475; that for C33U G58C, 1.01; that for C33U G58A, 1. The result for C33U G58U reads 0.974. The result for C33G C63A reads 0.323; that for C33G U44A, 0.29.

Turning to C33G C34A, the self-cleavage stood at 0.253. The result for C33G C34G reads 0.217. Regarding C33G C34U, the self-cleavage is 0.671. The result for C33U C35A reads 0.233; that for C33A G50U, 0.893.

Regarding C34A A51U, the self-cleavage came out at 0.521. The result for C34A A51C reads 0.615; that for C34A C54A, 0.408. As for C34A C54G, the self-cleavage stood at 0.38. The result for C33G G41A reads 0.323; that for C33G G41C, 0.27.

Regarding C34A G56A, the self-cleavage is 0.562. The value for C33G U53C was 0.407. With C34A A59C, the self-cleavage stood at 0.302.

With C33U G37U, the self-cleavage is 0.245. The value for C33U C45U was 0.976; that for C34A U64G was 0.629; that for C33U G50U was 1. The value for C33U U55C was 0.685; that for C33U U55G was 0.8; that for C34A U43C was 0.496. The value for C34A U55A was 0.529; that for C33A A52C was 0.582. As to C33A A52U, the self-cleavage stood at 0.454. The value for C33A A52G was 0.785. The result for C33G A42C reads 0.314; that for C33G A42G, 0.522; that for C33G U46A, 0.438. As to C33G G58A, the self-cleavage amounted to 0.545. Take C33A C57U: the self-cleavage was found to be 0.343. The value for C33A A42C was 0.405; that for C33A A42U was 0.499.

Consider C33A A42G, for which the self-cleavage turned out to be 0.685. The value for C33G U36C was 0.531; that for C33A G56A was 0.758; that for C33A U46C was 0.847. The value for C33A U46G was 0.737; that for C33A U46A was 0.617; that for C33G C35U was 0.184. The value for C33U U43C was 0.939. For C33A C39A, the self-cleavage was 0.286. The result for C33A C39U reads 0.367; that for C33A C39G, 0.436; that for C34G A42G, 0.637.

With C34G A42U, the self-cleavage turned out to be 0.544. The value for C34A G58C was 0.556. The result for C34A G58U reads 0.881; that for C33U C34G, 0.258; that for C33A G68C, 0.967. The result for C32U U67G reads 1.04. For the variant C32U U67C, the self-cleavage amounted to 0.959.

For C33U C66A, the self-cleavage was 0.884. The result for C33U C66U reads 0.98. In the case of C33A G37C, the self-cleavage was 0.265. Turning to C34A U61G, the self-cleavage is 0.426.

As to C34A G48A, the self-cleavage came out at 0.862.

C33U U62C: the self-cleavage is 0.847. C33U U62A: the self-cleavage was determined as 0.956. The value for C33U U62G was 0.845; that for C33A G65A was 0.786; that for C33A G65U was 0.451. On to C34A A42G, for which the self-cleavage is 0.765.

With C34A A42U, the self-cleavage was determined as 0.491. The result for C33A A40U reads 0.375. The value for C33A A40C was 0.339; that for C34A C66A was 0.634.
